Measured values from US20260201039A1.

Target: human CD28 in its native form displayed on the cell surface (human) (UniProt P10747)
Experiment: cell-based or functional assay

IL2 secretion, PBMC of 20 donors on plate-coated protein, 72 h: < 80000 pg/mL
Substance: TGN1412 (IgG4) (antibody)
